The record followed here is PMC11391049 (Life Science Alliance, 2024).

Sequences and labels used below:
B7: β7-subunit (natural protein, S. cerevisiae, UniProt P30657 34-266, looked up)
chain: TQQPIVTGTSVISMKYDNGVIIAADNLGSYGSLLRFNGVERLIPVGDNTVVGISGDISDMQHIERLLKDLVTENAYDNPLADAEEALEPSYIFEYLATVMYQRRSKMNPLWNAIIVAGVQSNGDQFLRYVNLLGVTYSSPTLATGFGAHMANPLLRKVVDRESDIPKTTVQVAEEAIVNAMRVLYYRDARSSRNFSLAIIDKNTGLTFKKNLQVENMKWDFAKDIKGYGTQKI
notes: 20S proteasome subunit β7, S. cerevisiae, without its 33-residue propeptide (β7pro); the last 10 residues of the C-terminal extension are not resolved there

For one test, the target named is T1, Blm10 (S. cerevisiae, UniProt P43583 1-2143).
T1 construct: also called Blm10 chaperone
The test can be described thus: cryo-EM structure; native pre1-1CP-Blm10 complex copurified via FLAG-6xHis on β4; 2.4 Å, no symmetry applied. To be noted: both partners purified.

The target of test [1] is B7. The test can be described thus: cryo-EM structure; uncapped, fully matured 20S pre1-1CP isolated via FLAG-6xHis on β4; 2.0 Å with C2 symmetry. To be noted: both partners purified.
Test [2] has as its target T2, β4-S142F (pre1-1) with FLAG-6xHis-tag (S. cerevisiae, UniProt P22141 1-198, S142F).
T2 construct: Pre1/β4, S. cerevisiae, mutant version of the pre1-1 strain; also called pre1-1-FH; Pre1/β4 (β4-S142F)
T2 sequence: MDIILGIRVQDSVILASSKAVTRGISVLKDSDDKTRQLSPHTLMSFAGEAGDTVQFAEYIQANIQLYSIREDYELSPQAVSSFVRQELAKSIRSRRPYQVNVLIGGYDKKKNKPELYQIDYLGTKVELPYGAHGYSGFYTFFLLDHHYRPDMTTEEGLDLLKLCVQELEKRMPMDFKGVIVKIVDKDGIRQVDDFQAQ
The test can be described thus: affinity purification with mass spectrometry; tandem affinity purification (FLAG, 6xHis on β4) from pre1-1 cells overexpressing Pba1-Pba2, separation by native PAGE, bands evaluated by MS. Conditions: partners not purified.

In test [3] the target is B7. Briefly: cryo-EM structure; late-PC (doubly capped with Pba1-Pba2) isolated via FLAG-6xHis on β4 from pre1-1 cells; 2.1 Å with C2 symmetry, 2.3 Å without; sub-populations late-PC1 (2.7 Å) and late-PC2 (2.3 Å). To be noted: both partners purified.
Test [4] addresses T3, β5 precursor (β5-subunit with unprocessed β5-propeptide) (S. cerevisiae, UniProt P30656 1-287).
T3 construct: β5/Pre2, S. cerevisiae, unprocessed precursor with the whole 75-residue propeptide (all but -65, -64 and -13 resolved); numbers count on: the mature subunit (Thr1 = +1, propeptide residues negative); also called Pre2; precursor form of the β5-subunit
T3 sequence (looked up): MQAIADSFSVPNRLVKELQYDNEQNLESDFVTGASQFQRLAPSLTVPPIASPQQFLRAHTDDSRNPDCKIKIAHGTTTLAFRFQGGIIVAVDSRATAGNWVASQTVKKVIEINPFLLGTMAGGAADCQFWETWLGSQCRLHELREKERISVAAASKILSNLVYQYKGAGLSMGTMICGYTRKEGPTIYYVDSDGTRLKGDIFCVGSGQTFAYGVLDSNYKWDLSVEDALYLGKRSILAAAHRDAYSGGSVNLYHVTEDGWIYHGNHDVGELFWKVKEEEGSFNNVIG
The description is as above. To be noted: both partners purified.

T1 sequence (P43583 whole entry): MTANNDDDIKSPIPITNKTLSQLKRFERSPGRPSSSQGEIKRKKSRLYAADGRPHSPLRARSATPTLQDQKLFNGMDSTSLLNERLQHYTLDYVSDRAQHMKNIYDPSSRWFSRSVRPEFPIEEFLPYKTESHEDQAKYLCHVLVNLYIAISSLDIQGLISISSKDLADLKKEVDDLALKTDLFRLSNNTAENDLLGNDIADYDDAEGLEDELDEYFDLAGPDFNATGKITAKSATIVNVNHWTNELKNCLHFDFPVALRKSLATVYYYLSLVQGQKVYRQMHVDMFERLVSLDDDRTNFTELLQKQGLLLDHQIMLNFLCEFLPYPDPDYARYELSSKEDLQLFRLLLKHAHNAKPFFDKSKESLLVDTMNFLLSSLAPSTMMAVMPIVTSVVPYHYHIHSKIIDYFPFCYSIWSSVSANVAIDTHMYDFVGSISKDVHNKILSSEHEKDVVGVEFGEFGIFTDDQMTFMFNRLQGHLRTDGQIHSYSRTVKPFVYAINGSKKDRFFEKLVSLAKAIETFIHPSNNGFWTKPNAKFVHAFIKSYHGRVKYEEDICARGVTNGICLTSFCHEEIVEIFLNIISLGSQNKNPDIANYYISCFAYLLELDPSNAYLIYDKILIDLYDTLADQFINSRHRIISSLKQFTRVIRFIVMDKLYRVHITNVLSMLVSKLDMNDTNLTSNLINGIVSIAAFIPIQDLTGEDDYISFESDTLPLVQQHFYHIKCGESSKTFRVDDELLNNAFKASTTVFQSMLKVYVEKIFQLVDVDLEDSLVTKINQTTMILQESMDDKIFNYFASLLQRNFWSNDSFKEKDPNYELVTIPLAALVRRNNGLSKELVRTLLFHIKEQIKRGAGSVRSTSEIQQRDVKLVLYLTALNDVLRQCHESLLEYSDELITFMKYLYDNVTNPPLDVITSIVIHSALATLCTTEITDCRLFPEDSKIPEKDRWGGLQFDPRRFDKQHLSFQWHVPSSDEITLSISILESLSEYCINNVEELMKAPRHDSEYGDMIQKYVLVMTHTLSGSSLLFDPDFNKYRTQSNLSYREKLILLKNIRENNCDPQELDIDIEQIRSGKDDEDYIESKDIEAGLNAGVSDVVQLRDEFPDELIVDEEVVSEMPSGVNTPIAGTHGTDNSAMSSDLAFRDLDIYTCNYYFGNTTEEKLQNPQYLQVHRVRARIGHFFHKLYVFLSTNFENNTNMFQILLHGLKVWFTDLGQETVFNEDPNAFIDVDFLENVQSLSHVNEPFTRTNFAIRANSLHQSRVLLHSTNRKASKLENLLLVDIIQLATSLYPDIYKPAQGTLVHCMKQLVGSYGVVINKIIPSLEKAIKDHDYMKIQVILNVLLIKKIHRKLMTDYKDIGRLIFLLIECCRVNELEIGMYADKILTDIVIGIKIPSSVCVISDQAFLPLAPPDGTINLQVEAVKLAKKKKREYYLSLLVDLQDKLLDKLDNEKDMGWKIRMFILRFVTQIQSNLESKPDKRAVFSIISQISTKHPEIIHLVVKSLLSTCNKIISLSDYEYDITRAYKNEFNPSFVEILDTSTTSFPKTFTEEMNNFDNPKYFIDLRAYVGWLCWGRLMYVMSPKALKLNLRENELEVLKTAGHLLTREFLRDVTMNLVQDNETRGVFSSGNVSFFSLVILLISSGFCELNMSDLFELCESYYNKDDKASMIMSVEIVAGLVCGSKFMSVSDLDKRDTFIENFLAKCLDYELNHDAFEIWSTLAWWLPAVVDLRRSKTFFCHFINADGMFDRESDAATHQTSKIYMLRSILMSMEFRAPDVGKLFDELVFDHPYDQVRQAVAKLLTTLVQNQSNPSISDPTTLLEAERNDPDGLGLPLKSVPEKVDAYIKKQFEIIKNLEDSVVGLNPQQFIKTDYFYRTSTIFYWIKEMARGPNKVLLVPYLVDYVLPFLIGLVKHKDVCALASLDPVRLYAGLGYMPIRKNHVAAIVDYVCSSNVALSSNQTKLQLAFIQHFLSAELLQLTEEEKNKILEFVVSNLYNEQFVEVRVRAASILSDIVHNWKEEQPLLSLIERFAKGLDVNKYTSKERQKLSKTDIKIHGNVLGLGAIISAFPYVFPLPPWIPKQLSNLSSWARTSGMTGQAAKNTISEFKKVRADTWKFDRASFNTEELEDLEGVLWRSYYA

B1: α5-subunit (natural protein, S. cerevisiae, UniProt P32379 1-260, looked up)
chain: MFLTRSEYDRGVSTFSPEGRLFQVEYSLEAIKLGSTAIGIATKEGVVLGVEKRATSPLLESDSIEKIVEIDRHIGCAMSGLTADARSMIEHARTAAVTHNLYYDEDINVESLTQSVCDLALRFGEGASGEERLMSRPFGVALLIAGHDADDGYQLFHAEPSGTFYRYNAKAIGSGSEGAQAELLNEWHSSLTLKEAELLVLKILKQVMEEKLDENNAQLSCITKQDGFKIYDNEKTAELIKELKEKEAAESPEEADVEMS
notes: 20S proteasome subunit α5, S. cerevisiae
As to B1, the binding result with Blm10 was “binds”.

B2: β2-subunit, autocatalytically processed (natural protein, S. cerevisiae, UniProt P25043 30-261, looked up)
chain: TTIVGVKFNNGVVIAADTRSTQGPIVADKNCAKLHRISPKIWCAGAGTAADTEAVTQLIGSNIELHSLYTSREPRVVSALQMLKQHLFKYQGHIGAYLIVAGVDPTGSHLFSIHAHGSTDVGYYLSLGSGSLAAMAVLESHWKQDLTKEEAIKLASDAIQAGIWNDLGSGSNVDVCVMEIGKDAEYLRNYLTPNVREEKQKSYKFPRGTTAVLKESIVNICDIQEEQVDITA
notes: β2/Pup1, S. cerevisiae, mature subunit beginning at the active site Thr1 after cleavage of the Gly-1/Thr1 bond (29-residue propeptide removed); numbers count on: the mature subunit; also called Pup1; mature β2
For B2, the binding result in the test with β7-subunit [1] is “binds”.

B3: β6-subunit (natural protein, S. cerevisiae, UniProt P23724 20-241, looked up)
chain: QFNPYGDNGGTILGIAGEDFAVLAGDTRNITDYSINSRYEPKVFDCGDNIVMSANGFAADGDALVKRFKNSVKWYHFDHNDKKLSINSAARNIQHLLYGKRFFPYYVHTIIAGLDEDGKGAVYSFDPVGSYEREQCRAGGAAASLIMPFLDNQVNFKNQYEPGTNGKVKKPLKYLSVEEVIKLVRDSFTSATERHIQVGDGLEILIVTKDGVRKEFYELKRD
notes: 20S proteasome subunit β6, S. cerevisiae, without its 19-residue propeptide (β6pro)
In the case of B3, the binding result in the test with β7-subunit [1] is “binds”.

B4: β1-subunit, autocatalytically cleaved (mature, in pre1-1CP) (natural protein, S. cerevisiae, UniProt P38624 20-215, looked up)
chain: TSIMAVTFKDGVILGADSRTTTGAYIANRVTDKLTRVHDKIWCCRSGSAADTQAIADIVQYHLELYTSQYGTPSTETAASVFKELCYENKDNLTAGIIVAGYDDKNKGEVYTIPLGGSVHKLPYAIAGSGSTFIYGYCDKNFRENMSKEETVDFIKHSLSQAIKWDGSSGGVIRMVVLTAAGVERLIFYPDEYEQL
notes: β1/Pre3, S. cerevisiae, mature subunit beginning at Thr1; numbers count on: the mature subunit; also called Pre3
For B4, in the test with β7-subunit [1], the binding result is “binds”.

B5: Ump1 (natural protein, S. cerevisiae, UniProt P38293 1-148, looked up)
chain: MNIVPQDTFKSQVSTDQDKSVLSSAVPSLPDTLRQQEGGAVPLSTQLNDRHPLESTLKNWETTQRQRQMEQYRQIFGIAEPMKRTMEMEIVNRTDFNPLSTNGSIHRDILLNKECSIDWEDVYPGTGLQASTMVGDDVHSKIEKQLGI
notes: residues 126-131 not resolved; two Ump1 molecules are encased in one late-PC, one in each half; also called ScUmp1; Ump1 chaperone
Take B5: the binding result (in test [2]; with β7-subunit [3]) was “binds” throughout.

B6: α6-subunit (natural protein, S. cerevisiae, UniProt P40302 1-234, looked up)
chain: MFRNNYDGDTVTFSPTGRLFQVEYALEAIKQGSVTVGLRSNTHAVLVALKRNADELSSYQKKIIKCDEHMGLSLAGLAPDARVLSNYLRQQCNYSSLVFNRKLAVERAGHLLCDKAQKNTQSYGGRPYGVGLLIIGYDKSGAHLLEFQPSGNVTELYGTAIGARSQGAKTYLERTLDTFIKIDGNPDELIKAGVEAISQSLRDESLTVDNLSIAIVGKDTPFTIYDGEAVAKYI
notes: 20S proteasome subunit α6, S. cerevisiae
As to B6, the binding result with Blm10 was “binds”.
B7: the binding result in test [4] is listed as “binds”.
